Measured values: US20050175719A1, “Procyanidins for treatment and prevention of enzymatic irritation to the skin” (priority 2004, published 2005)

B1: STI: pure serine protease inhibitor (soybean trypsin inhibitor) from Sigma, used as positive control (protein, UniProt P01070 25-205, looked up)
Trypsin inhibitor A: DFVLDNEGNPLENGGTYYILSDITAFGGIRAAPTGNERCPLTVVQSRNELDKGIGTIISSPYRIRFIAEGHPLSLKFDSFAVIMLCVGIPTEWSVVEDLPEGPAVKIGENKDAMDGWFRLERVSDDEFNNYKLVFCPQQAEDDKCGDIGISIDHDDGTRRLVVSKNKPLVVQFQKLDKESL
B2: Lactoferrin: commonly used antioxidant (protein, UniProt P02788 20-710, looked up)
Lactotransferrin: GRRRSVQWCAVSQPEATKCFQWQRNMRKVRGPPVSCIKRDSPIQCIQAIAENRADAVTLDGGFIYEAGLAPYKLRPVAAEVYGTERQPRTHYYAVAVVKKGGSFQLNELQGLKSCHTGLRRTAGWNVPIGTLRPFLNWTGPPEPIEAAVARFFSASCVPGADKGQFPNLCRLCAGTGENKCAFSSQEPYFSYSGAFKCLRDGAGDVAFIRESTVFEDLSDEAERDEYELLCPDNTRKPVDKFKDCHLARVPSHAVVARSVNGKEDAIWNLLRQAQEKFGKDKSPKFQLFGSPSGQKDLLFKDSAIGFSRVPPRIDSGLYLGSGYFTAIQNLRKSEEEVAARRARVVWCAVGEQELRKCNQWSGLSEGSVTCSSASTTEDCIALVLKGEADAMSLDGGYVYTAGKCGLVPVLAENYKSQQSSDPDPNCVDRPVEGYLAVAVVRRSDTSLTWNSVKGKKSCHTAVDRTAGWNIPMGLLFNQTGSCKFDEYFSQSCAPGSDPRSNLCALCIGDEQGENKCVPNSNERYYGYTGAFRCLAENAGDVAFVKDVTVLQNTDGNNNEAWAKDLKLADFALLCLDGKRKPVTEARSCHLAMAPNHAVVSRMDKVERLKQVLLHQQAKFGRNGSDCPDKFCLFQSETKNLLFNDNTECLARLHGKTTYEKYLGPQYVAGITNLKKCSTSPLLEACEFLRK

Tested on: trypsin
Assay: Inhibition of trypsin-induced cleavage of fluorescent BODIPY FL casein (EnzChek protease assay kit)
Assay type: biochemical
Excerpt: The procedure of Example 1 was independently repeated using the procyanidin-containing grape seed extract and STI, respectively, at 0.1% concentration. In addition, the procedure of Example 1 was repeated on the five individual monomer units typically found in OPC, at up to three different concentration levels.

Row | Molecule | % trypsin inhibition (Table 4, concentration (w/w) 0.1 %) [%] | % trypsin inhibition (concentration 0.0005 % (w/w)) [%] | % trypsin inhibition (concentration 0.001 % (w/w)) [%] | % trypsin inhibition (concentration 0.0025 % (w/w)) [%] | % trypsin inhibition (concentration 0.005 % (w/w)) [%] | % trypsin inhibition (concentration 0.01 % (w/w)) [%] | % trypsin inhibition (concentration 0.025 % (w/w)) [%] | % trypsin inhibition (concentration 0.05 % (w/w)) [%] | % trypsin inhibition (concentration 0.075 % (w/w)) [%] | trypsin inhibition activity (in words) (at concentrations up to 0.1%) | % trypsin inhibition (concentration 0.1 % (w/w)) [%]
1 | B1 | 89 | 17 | 30 | 44 | 55 | 74 | 85 | 87 | 63 | – | –
2 | B2 | – | – | −2 | – | – | −4 | – | – | – | no trypsin inhibition activity | 0
